Measured values published in publication PMC10715038.
Where two headings read alike, the source gives them in different places.

Assays:
Experiment in all cases: SPR
[1] = target: Horse ACE2-huFc (soluble horse ACE2 ectodomain, human IgG1 Fc fusion) (horse (Equus caballus)) (UniProt F6V9L3)
[2] = target: Horse ACE2-huFc (soluble horse ACE2 ectodomain, human IgG1 Fc fusion) (horse (Equus caballus)) (UniProt F6V9L3); remark: listed apart in the source
[3] = target: Pangolin ACE2-huFc (soluble pangolin ACE2 ectodomain, human IgG1 Fc fusion) (pangolin (Manis javanica))

SARS-CoV-2 WHU01 Spike RBD, monomeric (from UniProt P0DTC2) (domain or fragment)
Kd [1]: 67.4 nM
Kd [2]: 89.8 nM
Kd [3]: 67.1 nM
